EP4667489A1 (Kyinno Biotechnology Co., Ltd., dated 2025)
Numbering of substitutions follows the chain as printed. Names and notes keep the numbering of the source.

What was measured:
[1] = target: T1, human PDL1 expressed on 293T-PDL1 cells (human, UniProt Q9NZQ7 19-290); assay: cell-based or functional assay
[2] = target: T2, human EGFR expressed on CT26-EGFR cells (human, UniProt P00533 25-1210); assay: cell-based or functional assay
[3] = target: T1, human PDL1 expressed on 293T-PDL1 cells; assay: flow cytometry on 293T-PDL1 cells
[4] = target: T2, human EGFR expressed on CT26-EGFR cells; assay: flow cytometry on CT26-EGFR cells
[5] = target: T3, EGFR-His (Kyinno, Cat No.: KP-1150) (UniProt P00533 25-645, limits assumed); assay: BLI (ForteBio Octet), EGFR-His as mobile phase
T3 construct: bought; not shown: His tag

[6] = target: T4, PDL1-His (Kyinno, Cat No.: KP-1022) (UniProt Q9NZQ7 19-238, limits assumed); assay: BLI (ForteBio Octet), PDL1-His as mobile phase
T4 construct: not shown: His tag
T4 sequence (Q9NZQ7 19-238 limits assumed): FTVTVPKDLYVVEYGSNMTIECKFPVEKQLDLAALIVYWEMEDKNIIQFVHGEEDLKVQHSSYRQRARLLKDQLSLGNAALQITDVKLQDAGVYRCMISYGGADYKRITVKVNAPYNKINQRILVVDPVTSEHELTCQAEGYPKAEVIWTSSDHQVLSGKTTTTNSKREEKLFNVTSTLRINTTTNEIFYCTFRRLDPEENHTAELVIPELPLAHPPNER

[7] = target: T5, PDL1-mFc (fusion protein of the human PDL1 extracellular domain and mouse Fc; Kyinno, Cat No.: KP-1008) (human; mouse, UniProt Q9NZQ7 19-238); assay: flow cytometry, blocking of PDL1-mFc binding to 293T-PD1 cells
T5 construct: extracellular domain; bought; also called human PDL1-mFc; not shown: mouse Fc
T5 sequence (Q9NZQ7 19-238): as the sequence (Q9NZQ7 19-238 limits assumed) above

[8] = target: T2, human EGFR expressed on CT26-EGFR cells; assay: flow cytometry, blocking of EGF-mFc binding to CT26-EGFR cells
[9] = target: T6, human LAG3 expressed on 293T-LAG3 cells (human, UniProt P18627 23-525); assay: flow cytometry on 293T-LAG3 cells
T6 construct: whole, on cells; 293T cells stably expressing human LAG3 (Kyinno KC-0214); also called LAG3-expressing cells
T6 sequence (looked up): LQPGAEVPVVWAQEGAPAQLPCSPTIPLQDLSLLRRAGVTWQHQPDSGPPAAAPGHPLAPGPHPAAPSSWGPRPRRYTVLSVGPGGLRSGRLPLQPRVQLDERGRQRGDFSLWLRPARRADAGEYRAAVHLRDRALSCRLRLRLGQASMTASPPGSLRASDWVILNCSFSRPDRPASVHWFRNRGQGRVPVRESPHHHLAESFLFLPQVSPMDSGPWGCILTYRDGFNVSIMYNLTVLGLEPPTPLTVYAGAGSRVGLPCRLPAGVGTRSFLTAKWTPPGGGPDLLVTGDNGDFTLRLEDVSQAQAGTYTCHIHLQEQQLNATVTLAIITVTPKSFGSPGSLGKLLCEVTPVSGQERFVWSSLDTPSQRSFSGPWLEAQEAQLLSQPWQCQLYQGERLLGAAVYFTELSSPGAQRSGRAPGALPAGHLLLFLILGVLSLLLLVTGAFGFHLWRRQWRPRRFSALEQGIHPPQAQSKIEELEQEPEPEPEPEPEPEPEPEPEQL

[10] = target: T7, LAG3-His (ACRO, Cat No.: LA3-H5222) (UniProt P18627 23-450); assay: BLI (ForteBio Octet), LAG3-His as mobile phase
T7 construct: bought protein; not shown: His tag
T7 sequence (looked up): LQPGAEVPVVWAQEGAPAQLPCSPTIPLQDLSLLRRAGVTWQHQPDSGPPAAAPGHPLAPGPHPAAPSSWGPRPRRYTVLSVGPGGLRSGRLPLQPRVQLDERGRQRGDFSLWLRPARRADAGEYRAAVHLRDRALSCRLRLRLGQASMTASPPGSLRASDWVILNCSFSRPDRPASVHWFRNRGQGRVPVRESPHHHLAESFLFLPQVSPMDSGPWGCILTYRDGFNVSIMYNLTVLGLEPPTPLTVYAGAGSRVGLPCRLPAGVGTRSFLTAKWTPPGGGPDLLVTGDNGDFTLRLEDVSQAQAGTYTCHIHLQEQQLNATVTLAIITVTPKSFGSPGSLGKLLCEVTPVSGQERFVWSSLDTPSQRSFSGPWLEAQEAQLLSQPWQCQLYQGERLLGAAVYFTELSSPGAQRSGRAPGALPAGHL

[11] = target: T8, LAG3-mFc (fusion protein of the human LAG3 extracellular domain and mouse IgG2a-Fc) (human; mouse, UniProt P18627 23-450); assay: flow cytometry, blocking of LAG3-mFc binding to Daudi cells
T8 construct: extracellular domain; also called human LAG3-mFc; not shown: mouse IgG2a-Fc, Genbank AAH31470.1
T8 sequence (looked up): T7 sequence (looked up)

[12] = target: T9, human PD1 expressed on 293T-PD1 cells (human, UniProt Q15116 25-288); assay: flow cytometry on 293T-PD1 cells
T9 construct: whole, on cells; 293T cells stably expressing human PD1 (Kyinno KC-0204); also called PD1-expressing cells; Jurkat NFAT-PD1-luc cells
T9 sequence (Q15116 25-288): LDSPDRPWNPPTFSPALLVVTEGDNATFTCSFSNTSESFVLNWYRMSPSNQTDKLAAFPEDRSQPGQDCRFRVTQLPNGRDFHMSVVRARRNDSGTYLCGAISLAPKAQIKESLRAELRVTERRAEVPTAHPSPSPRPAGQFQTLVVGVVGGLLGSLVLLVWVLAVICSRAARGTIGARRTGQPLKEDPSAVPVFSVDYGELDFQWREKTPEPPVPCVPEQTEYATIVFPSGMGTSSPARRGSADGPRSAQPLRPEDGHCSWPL

[13] = target: T10, PD1-His (Kyinno, Cat No.: KP-1023) (UniProt Q15116 25-167, limits assumed); assay: BLI (ForteBio Octet), PD1-His as mobile phase
T10 construct: bought protein; not shown: His tag
T10 sequence (Q15116 25-167 limits assumed): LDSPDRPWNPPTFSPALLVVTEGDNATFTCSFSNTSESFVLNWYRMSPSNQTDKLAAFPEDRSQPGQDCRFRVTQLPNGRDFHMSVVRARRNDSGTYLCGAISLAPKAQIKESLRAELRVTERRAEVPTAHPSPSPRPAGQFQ

[14] = target: T11, PD1-mFc (fusion protein of the human PD1 extracellular domain and mouse IgG2a-Fc) (human; mouse, UniProt Q15116 25-170); assay: flow cytometry, blocking of PD1-mFc binding to 293T-PDL1 cells
T11 construct: extracellular domain; not shown: mouse IgG2a-Fc, Genbank AAH31470.1
T11 sequence (Q15116 25-170): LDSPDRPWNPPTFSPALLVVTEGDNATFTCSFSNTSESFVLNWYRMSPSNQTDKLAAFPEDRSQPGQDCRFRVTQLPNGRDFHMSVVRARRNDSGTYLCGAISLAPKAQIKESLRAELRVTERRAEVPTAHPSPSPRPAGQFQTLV

T1 sequence (Q9NZQ7 19-290): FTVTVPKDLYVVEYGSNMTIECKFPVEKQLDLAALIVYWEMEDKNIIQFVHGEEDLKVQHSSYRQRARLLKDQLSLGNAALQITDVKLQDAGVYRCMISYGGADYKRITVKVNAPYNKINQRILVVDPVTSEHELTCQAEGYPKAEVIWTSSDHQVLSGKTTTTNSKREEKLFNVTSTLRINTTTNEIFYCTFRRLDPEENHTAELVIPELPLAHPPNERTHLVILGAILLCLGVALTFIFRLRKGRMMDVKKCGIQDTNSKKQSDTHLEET

B1: KA-2073 H22A12×58E3-CLC02 (bispecific antibody, human IgG1, kappa)
heavy 1: not shown
heavy 2: not shown
light: DIQLTQSPSTLSASVGDRVTITCSATSSIGYMHWYQQKPGTSPKRWIYDTSKLASGVPSRFSGSGSGTEYTLTISSLQPDDFATYYCQLWSSDPPYTFGQGTRLEIKRTVAAPSVFIFPPSDEQLKSGTASVVCLLNNFYPREAKVQWKVDNALQSGNSQESVTEQDSKDSTYSLSSTLTLSKADYEKHKVYACEVTHQGLSSPVTKSFNRGEC
notes: EGFR×PDL1 bispecific; first heavy chain targets EGFR (hIgG1 Knob), second targets PDL1 (hIgG1 Hole); common light chain 3
With B1 the “IC50, luciferase reporter (procedure of Example 30)” value [1] was 0.429 nM, the “IC50, luciferase reporter (procedure of Example 34)” value [2] was 1.05 nM and the EC50 [3] was 0.521 µg/mL. For the same binder, the EC50 [4] was 0.0358 µg/mL, the Kd [5] was 5.64 nM and the koff [5] was 0.00449 s⁻¹. For the same binder, the kon [5] was 796000 M⁻¹ s⁻¹, the Kd [6] was 0.602 nM and the koff [6] was 0.00126 s⁻¹. The kon [6] was 2.09e+06 M⁻¹ s⁻¹, the IC50 [7] was 0.129 µg/mL and the IC50 [8] was 0.0123 µg/mL.

B2: KA-1782 H28G2-7V4-hIgG4M (antibody, V domains shown)
VH: QVQLQESGPGLVKPSETLSLTCTVSGYSFTSGYYWNWIRQPPGKGLEWIGYVSYFGTANYNPALKNRVTISRDTSKNQFSLKLSSVTAADTAVYYCARGEEWDWSFDVWGQGTTVTVSS
VL: DIQITQSPSSLSASVGDRVTITCSATSGVSYMHWYQQKPGKAPKRLIYDTSRLASGVPSRFSGSGSGTDYTLTISSLQPEDFATYYCQQWSSNPPYTFGQGTRLEIKR
notes: anti-LAG3 humanized antibody, human IgG4 (S228P) / kappa
B2 was tested, and the EC50 [9] was 0.0674 µg/mL, the Kd [10] was 0.174 nM and the koff [10] was 0.000153 s⁻¹. The kon [10] was 881000 M⁻¹ s⁻¹ and the IC50 [11] was 0.476 µg/mL.

B3: KA-1807 H107D12-10V4-hIgG4M (antibody, V domains shown)
VH: QVQLVESGGGLVKPGGSLRLSCAASGFTFSDYGMHWIRQAPGKGLEWVAYISSGSYTIYYADTVRDRFTISRDSAKNSLYLQMNSLRAEDTAVYYCVRRGPGYFGSTALDYWGQGTTVTVSS
VL: B2 VL
notes: anti-PD1 humanized antibody, human IgG4 (S228P) / kappa; also called KA-1807 H107D12-10V4-hlgG4M
B3 was tested, and the EC50 [12] was 0.193 µg/mL, the Kd [13] was 6.96 nM and the koff [13] was 0.00143 s⁻¹. It also gave a kon [13] of 205000 M⁻¹ s⁻¹ and an IC50 [14] of 0.158 µg/mL.

B4: KA-1773 M107D12-10CLC1-hIgG4M (antibody, V domains shown)
VH: B3 VH with V5K, R19K, I37V, G42E, S78T, Y80F, N84T, A88S, V93M, V118L
VL: QIVLTQSPAIMSASPGEKVTMTCSATSGVSYMHWYQQKSGTSPKRWIYDTSRLASGVPARFSGSGSGTSYSLTISSMEAEDAATYYCQQWSSNPPYTFGSGTKLEIKR
notes: anti-PD1 chimeric antibody, human IgG4 (S228P) / kappa
B4 was tested, and the EC50 [12] was 0.265 µg/mL and the IC50 [14] was 0.256 µg/mL.

B5: KA-1728 M28G2-7CLC1-hIgG4M (antibody, V domains shown)
VH: DVKLQESGPGLVKPSQSLSLTCSVTGYSFTSGYYWNWIRLFPGNKLEWMGYVSYFGTNNYNPSLKNRFSITRDTSKNQFFLKLNSVSTEDTATYYCARGEEWDWSFDVWGTGTTVTVSS
VL: B4 VL
B5 showed an EC50 [9] of 0.118 µg/mL and an IC50 [11] of 0.805 µg/mL.

B6: KA-1733 M28G2-7CLC2-hIgG4M (antibody, V domains shown)
VH: B5 VH
VL: B4 VL with T26S, G28S, R52K
B6 gave an EC50 [9] of 0.0649 µg/mL and an IC50 [11] of 0.563 µg/mL.

B7: KA-1774 M107D12-10CLC2-hIgG4M (antibody, V domains shown)
VH: B3 VH with V5K, R19K, I37V, G42E, S78T, Y80F, N84T, A88S, V93M, V118L
VL: B4 VL with T26S, G28S, R52K
For B7, the EC50 [12] was 0.272 µg/mL and the IC50 [14] was 0.218 µg/mL.

B8: KA-2072 H22A12×58E3-CLC01 (bispecific antibody, human IgG1, kappa)
heavy 1: not shown
heavy 2: not shown
light: DIQITQSPSSLSASVGDRVTITCSATSGVSYMHWYQQKPGKAPKRLIYDTSRLASGVPSRFSGSGSGTDYTLTISSLQPEDFATYYCQQWSSNPPYTFGQGTRLEIKRTVAAPSVFIFPPSDEQLKSGTASVVCLLNNFYPREAKVQWKVDNALQSGNSQESVTEQDSKDSTYSLSSTLTLSKADYEKHKVYACEVTHQGLSSPVTKSFNRGEC
notes: EGFR×PDL1 bispecific; first heavy chain targets EGFR (hIgG1 Knob), second targets PDL1 (hIgG1 Hole); common light chain 1
In the case of B8, the “IC50, luciferase reporter (procedure of Example 30)” value [1] is reported as 0.372 nM, the “IC50, luciferase reporter (procedure of Example 34)” value [2] is reported as 1.01 nM and the EC50 [3] is reported as 0.422 µg/mL. It also gave an EC50 [4] of 0.0393 µg/mL, a Kd [5] of 4.21 nM and a koff [5] of 0.00295 s⁻¹. It also gave a kon [5] of 701000 M⁻¹ s⁻¹, a Kd [6] of 0.464 nM and a koff [6] of 0.000426 s⁻¹. For the same binder, the kon [6] was 918000 M⁻¹ s⁻¹, the IC50 [7] was 0.122 µg/mL and the IC50 [8] was 0.0155 µg/mL.
